Like-named read-outs stand apart in the source and are kept apart here.
Assays:
OR8K3 = biological target: T1, OR8K3 (Homo sapiens, UniProt Q8NH51, D295E/L122R/Y298D); experiment: cell-based; format: cell-based
T1 construct: Improved functional expression of modified OR-genes containing the truncated, optimized C-terminus; expressed in transfected cells; host or cells: HEK293T stably expressing human RTP1S(V227I) and RTP2(L220R)
T1 sequence (Q8NH51 with tags, fused parts or gaps L122R/D295E/Y298D): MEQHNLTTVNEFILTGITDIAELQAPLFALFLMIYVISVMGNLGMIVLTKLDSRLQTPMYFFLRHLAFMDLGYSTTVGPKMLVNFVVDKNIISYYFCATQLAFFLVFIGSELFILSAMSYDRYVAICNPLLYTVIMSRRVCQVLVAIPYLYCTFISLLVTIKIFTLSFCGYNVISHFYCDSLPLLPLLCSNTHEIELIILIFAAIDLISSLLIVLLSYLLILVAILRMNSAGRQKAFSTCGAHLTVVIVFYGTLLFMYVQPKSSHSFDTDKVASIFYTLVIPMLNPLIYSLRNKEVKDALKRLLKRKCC

OR7C1 = biological target: T2, OR7C1 (Homo sapiens, UniProt O76099, D296E/G302K/M297V/R299D/T295K/V126I); experiment: CRE-luciferase assay, HEK293T cells expressing OR7C1 (wild-type / modified C-terminus); format: cell-based
T2 construct: Improved functional expression of modified OR-genes containing the truncated, optimized C-terminus; expressed in transfected cells; host or cells: HEK293T stably expressing human RTP1S(V227I) and RTP2(L220R)
T2 sequence (O76099 with tags, fused parts or gaps V126I/T295K/D296E/M297V/R299D/G302K): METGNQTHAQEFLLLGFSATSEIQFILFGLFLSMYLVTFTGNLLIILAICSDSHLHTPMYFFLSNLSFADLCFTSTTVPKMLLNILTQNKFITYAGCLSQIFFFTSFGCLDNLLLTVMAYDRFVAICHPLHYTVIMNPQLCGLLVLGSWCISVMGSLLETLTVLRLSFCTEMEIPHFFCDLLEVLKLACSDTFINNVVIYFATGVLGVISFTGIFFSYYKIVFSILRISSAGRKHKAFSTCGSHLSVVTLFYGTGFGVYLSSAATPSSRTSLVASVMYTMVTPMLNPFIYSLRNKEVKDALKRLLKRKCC
Excerpt: To test for possible variants of the sequence […]CC (SEQ ID NO: 86) leading to similar improved functional expression, different point mutations were introduced into the first 16 amino acids of this sequence (corresponding to […], SEQ ID NO: 10) and the variants were fused after the TM7 with OR7C1. […] The test concentrations were selected to fall into the range of partial activity of the wild-type sequence.

OR7D4 = biological target: T3, OR7D4 (Homo sapiens, UniProt Q8NG98, D296E/E302K/G299D); experiment: CRE-luciferase assay, HEK cells expressing OR7D4 (wild-type / modified C-terminus); format: cell-based; conditions: OR7D4 variant, Androstenone
T3 construct: Improved functional expression of modified OR-genes containing the truncated, optimized C-terminus; expressed in transfected cells
T3 sequence (Q8NG98 with tags, fused parts or gaps D296E/G299D/E302K): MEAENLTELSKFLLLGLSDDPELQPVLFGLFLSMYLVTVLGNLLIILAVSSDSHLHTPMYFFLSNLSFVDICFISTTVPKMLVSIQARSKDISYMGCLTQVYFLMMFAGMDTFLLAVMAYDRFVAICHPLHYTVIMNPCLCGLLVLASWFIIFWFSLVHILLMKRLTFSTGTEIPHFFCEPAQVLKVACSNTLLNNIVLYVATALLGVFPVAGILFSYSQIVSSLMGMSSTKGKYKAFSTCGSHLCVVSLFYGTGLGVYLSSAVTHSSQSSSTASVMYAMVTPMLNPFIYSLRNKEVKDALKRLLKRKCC
Excerpt: Random permutations of the general C-terminal sequence RN[KR][EDQ][VMIL][KR]KA[LIV][KRH][KR][LI][LIF][KRG][KR][KR]CC (SEQ ID NO: 822) linked to OR7D4 were generated based on degenerate oligonucleotides for the C-terminal domain. For this experiment, the MfeI/XhoI fragment from pcDNA3.1(+)-mmLucy-FLAG-rho-OR7D4 containing the CMV promoter and the OR coding sequence was used to replace the EcoRI/SalI fragment of pRDVCCB-CMV-dCas9-VPH-2A-Blast (Cellecta, Inc., Mountain View, USA). Complementary degenerate oligonucleotides were then used to replace the coding region of the C-terminal domain of […] (between Bsu36I and NotI). Random clones were selected, sequenced and tested for a correct open reading frame. A total of 55 clones were obtained with the correct open reading frame of […] and a permutation of the general sequence RN[KR][EDQ][VMIL][KR]KA[LIV][KRH][KR][LI][LIF][KRG][KR][KR]CC (SEQ ID NO: 822) as the C-terminal domain. All the different clones were compared to the wild-type sequence by the functional assay in HEK cells with the ligand Androstenone tested in a dose-response test.

OR5B12 = biological target: T4, OR5B12 (Homo sapiens, UniProt Q96R08, C141R); experiment: CRE-luciferase assay, HEK293T cells expressing OR5B12 (wild-type / modified C-terminus); format: cell-based; conditions: OR5B12 variant
T4 construct: Improved functional expression of modified OR-genes containing the truncated, optimized C-terminus; expressed in transfected cells; host or cells: HEK293T stably expressing human RTP1S(V227I) and RTP2(L220R)
T4 sequence (Q96R08 with tags, fused parts or gaps C141R): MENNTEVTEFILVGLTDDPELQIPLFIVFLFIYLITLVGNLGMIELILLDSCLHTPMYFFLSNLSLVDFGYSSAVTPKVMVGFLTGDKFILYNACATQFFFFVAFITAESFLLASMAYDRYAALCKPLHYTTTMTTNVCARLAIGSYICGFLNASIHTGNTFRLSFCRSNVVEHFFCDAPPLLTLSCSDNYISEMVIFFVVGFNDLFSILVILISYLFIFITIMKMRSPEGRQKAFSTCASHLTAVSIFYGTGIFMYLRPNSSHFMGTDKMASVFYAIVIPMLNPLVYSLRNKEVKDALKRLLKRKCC

OR52A5 = biological target: T5, OR52A5 (Homo sapiens, UniProt Q9H2C5); format: cell-based
T5 construct: Improved functional expression of modified OR-genes containing the truncated, optimized C-terminus; expressed in transfected cells; host or cells: HEK293T stably expressing human RTP1S(V227I) and RTP2(L220R)
T5 sequence (Q9H2C5 with tags, fused parts or gaps): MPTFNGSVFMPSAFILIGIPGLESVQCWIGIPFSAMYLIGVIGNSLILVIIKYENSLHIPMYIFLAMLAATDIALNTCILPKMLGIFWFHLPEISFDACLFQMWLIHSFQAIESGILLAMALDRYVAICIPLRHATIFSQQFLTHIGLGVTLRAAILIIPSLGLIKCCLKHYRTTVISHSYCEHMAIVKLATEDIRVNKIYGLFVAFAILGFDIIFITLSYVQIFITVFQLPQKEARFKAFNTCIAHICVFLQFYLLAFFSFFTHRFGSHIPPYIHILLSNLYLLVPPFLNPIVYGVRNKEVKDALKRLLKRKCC
Procedure: Further variants of the improved C-terminal domain sequence […] (SEQ ID NO: 86) and falling within the general sequence RN[KR][EDQ][VMIL][KR]xA[LIV][KRH][KR][LI][LIF][KRG][KR][KR] (SEQ ID NO: 1) with further amino acids at the C-terminal end (CC) were tested on the class I receptor OR52A5 activated by 4-ethyloctanoic acid. […] This activation is further improved by either replacing amino acid position 4-6 with the sequence QIR or by adding the terminal sequence RRR.

OR5A2 = biological target: T6, OR5A2 (Homo sapiens, UniProt Q8NGI9); experiment: CRE-luciferase assay, HEK293T cells expressing OR5A2 (wild-type / modified C-terminus); format: cell-based; conditions: OR5A2 variant
T6 construct: Improved functional expression of modified OR-genes containing the truncated, optimized C-terminus; expressed in transfected cells; host or cells: HEK293T with stably integrated human RTP1S(V227I) and RTP2(L220R)
T6 sequence (Q8NGI9 with tags, fused parts or gaps): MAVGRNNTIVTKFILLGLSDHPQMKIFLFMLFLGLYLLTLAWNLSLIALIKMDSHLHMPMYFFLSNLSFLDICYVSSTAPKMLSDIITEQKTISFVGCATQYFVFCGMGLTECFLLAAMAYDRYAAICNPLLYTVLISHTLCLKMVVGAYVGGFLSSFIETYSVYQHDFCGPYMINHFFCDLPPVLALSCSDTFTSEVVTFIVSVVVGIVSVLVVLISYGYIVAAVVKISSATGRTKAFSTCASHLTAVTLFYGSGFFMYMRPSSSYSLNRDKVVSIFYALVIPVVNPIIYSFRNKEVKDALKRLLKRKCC

OR2T4 = biological target: T7, OR2T4 (Homo sapiens, UniProt Q8NH00, D328E/G331D/M330K); conditions: OR2T4 variant
T7 sequence (Q8NH00 with tags, fused parts or gaps D328E/M330K/G331D): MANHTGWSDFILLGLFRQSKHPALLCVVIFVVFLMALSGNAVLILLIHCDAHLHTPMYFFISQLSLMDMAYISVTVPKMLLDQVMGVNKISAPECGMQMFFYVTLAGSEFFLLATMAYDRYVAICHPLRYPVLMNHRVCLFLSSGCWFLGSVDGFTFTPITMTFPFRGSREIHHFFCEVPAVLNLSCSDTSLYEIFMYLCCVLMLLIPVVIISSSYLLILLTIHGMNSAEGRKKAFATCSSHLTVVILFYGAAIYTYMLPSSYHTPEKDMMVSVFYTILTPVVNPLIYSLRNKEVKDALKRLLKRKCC

CC1CCC(C(C)C)C(O)C1 (stereo not shown) [Menthol]
Comments on efficacy (OR8K3): 3-fold lower
functional response of chimeric OR8K3 (OR8K3; C-terminal sequence of OR1N2 or OR5AN1): did not show any functional response
EC50 (OR8K3; changed C-term. SEQ ID NO: 86): 115 µM
Fold-improvement potency (OR8K3; changed C-term. vs wild-type): 2
Fold-improvement threshold (OR8K3; changed C-term. vs wild-type): 14.4
EC50 (OR8K3; wild-type): 236 µM

CC(C)[C@@H]1CC[C@@H](C)CC1=O [menthone]
activation of the modified receptor variant (OR8K3; OR8K3, SEQ ID NO: 86): also activating the receptor, although with a lower potency
inactive up to concentration (OR8K3; wild-type OR8K3): > 316 µM

SEQ ID NO: 86: optimized C-terminal sequence fused after TM7 of the OR of the assay (RNKEVKDALKRLLKRKCC; source 1..18: note = C-terminal domain sequence)
luciferase induction (OR7C1; 1 μM of Ambermax): around 10 fold
% of the activation by the optimized sequence RNKEVKDALKRLLKRKCC (OR7C1; OR7C1 variant, 1 μM Ambermax): 100%
EC2 (concentration for 2-fold luciferase induction) (OR7D4): 0.007 µM
EC2 Fold-improvement vs. wild-type (OR7D4): 249.44
% of the activation by the optimized sequence RNKEVKDALKRLLKRKCC (OR5B12; 31 μM Hedione HC): 100%
% of the activation by the optimized sequence RNKEVKDALKRLLKRKCC (OR5B12; 62.5 μM Hedione HC): 100%
fold induction of luciferase by 4-ethyloctanoic acid (OR52A5; 1 µM): 2.21
fold induction of luciferase by 4-ethyloctanoic acid (OR52A5; 10 µM): 3.53
fold induction of luciferase by 4-ethyloctanoic acid (OR52A5; 31 µM): 7.64
fold-induction of luciferase (OR5A2; muscone 0.01 μM): 1.07
fold-induction of luciferase (OR5A2; muscone 0.03 μM): 1.48
fold-induction of luciferase (OR5A2; muscone 0.10 μM): 3.57
fold-induction of luciferase (OR5A2; muscone 0.32 μM): 10.02
fold-induction of luciferase (OR5A2; muscone 1.00 μM): 21.98
fold-induction of luciferase (OR5A2; muscone 3.16 μM): 31.84
fold-induction of luciferase (OR5A2; muscone 10.00 μM): 33.98
% of the activation by the optimized sequence RNKEVKDALKRLLKRKCC (OR2T4; 4 μM 2-methyl-3-tetrahydrofuranethiol): 100%
% of the activation by the optimized sequence RNKEVKDALKRLLKRKCC (OR2T4; 8 μM 2-methyl-3-tetrahydrofuranethiol): 100%
% of the activation by the optimized sequence RNKEVKDALKRLLKRKCC (OR2T4; 10 μM Cyclopentanethiol, 30 μM copper): 100%
% of the activation by the optimized sequence RNKEVKDALKRLLKRKCC (OR2T4; 31 μM Cyclopentanethiol, 30 μM copper): 100%
